From the supplement of paper PMC9112550, “Optimization of the antimicrobial peptide Bac7 by deep mutational scanning” (BMC Biology, 2022)

Test system: Escherichia coli TOP10
Assay: shrunken log2 fold change of peptide-encoding DNA abundance (4.5 h post-induction vs induction); higher = less antimicrobial activity (less host growth inhibition)
Conditions: time post-induction: 4.5 h; library: site-saturation at positions 5, 18, 19, 20
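Further: peptides expressed intracellularly from a pBAD plasmid library in pooled LB shake-flask culture, induced with 0.3% L-arabinose, DNA abundance read by NGS, three biological replicates, DESeq2 with apeglm shrinkage.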

Sequence	shrunken log2 fold change
RRIRERPPRLPRPRPRPSQTPRP	-0.067
RRIRRRPPRLPRPRPRPRWLPRP	0.388
RRIRDRPPRLPRPRPRPNRWPRP	0.0049
RRIRARPPRLPRPRPRPYEAPRP	-0.222
RRIRTRPPRLPRPRPRPCPLPRP	-0.325
RRIRSRPPRLPRPRPRPQWAPRP	0.0253
RRIRVRPPRLPRPRPRPAKHPRP	-0.169
RRIRFRPPRLPRPRPRPTRCPRP	0.299
RRIRFRPPRLPRPRPRPNYTPRP	-1.07
RRIRQRPPRLPRPRPRPHCCPRP	-0.0421
RRIRGRPPRLPRPRPRPVTAPRP	0.74
RRIRKRPPRLPRPRPRPIVKPRP	-0.158
RRIRQRPPRLPRPRPRPCWQPRP	-0.0325
RRIRNRPPRLPRPRPRPRTSPRP	-0.0838
RRIRMRPPRLPRPRPRPFYDPRP	-0.12
RRIRYRPPRLPRPRPRPFMIPRP	-1.21
RRIRTRPPRLPRPRPRPDGRPRP	-0.0138
RRIRGRPPRLPRPRPRPFTMPRP	-0.278
RRIRARPPRLPRPRPRPETHPRP	0.56
RRIRHRPPRLPRPRPRPLLEPRP	0.0851
RRIRPRPPRLPRPRPRPPWHPRP	0.196
RRIRCRPPRLPRPRPRPQMFPRP	-0.155
RRIRWRPPRLPRPRPRPPPYPRP	0.0878
RRIRHRPPRLPRPRPRPWFTPRP	-0.0018
RRIRVRPPRLPRPRPRPVYQPRP	-0.243

Sequence	shrunken log2 fold change
RRIRNRPPRLPRPRPRPSSLPRP	-0.333
RRIRLRPPRLPRPRPRPSVPPRP	-0.185
RRIRQRPPRLPRPRPRPTSGPRP	-0.0104
RRIRYRPPRLPRPRPRPATRPRP	0.098
RRIRQRPPRLPRPRPRPQDRPRP	-0.254
RRIRWRPPRLPRPRPRPEDTPRP	-0.0372
RRIRARPPRLPRPRPRPACYPRP	0.489
RRIRHRPPRLPRPRPRPDEIPRP	-0.137
RRIRDRPPRLPRPRPRPNLIPRP	-0.15
RRIRLRPPRLPRPRPRPDISPRP	0.0207
RRIRLRPPRLPRPRPRPAHTPRP	0.0258
RRIRARPPRLPRPRPRPMDNPRP	-0.114
RRIRIRPPRLPRPRPRPWYFPRP	-0.19
RRIRMRPPRLPRPRPRPCQMPRP	0.00911
RRIRNRPPRLPRPRPRPKTFPRP	-0.399
RRIRYRPPRLPRPRPRPFFIPRP	-1.11
RRIRRRPPRLPRPRPRPNFFPRP	0.184
RRIRPRPPRLPRPRPRPVLVPRP	0.0376
RRIRFRPPRLPRPRPRPEPSPRP	0.378
RRIRIRPPRLPRPRPRPIFFPRP	-0.123
RRIRIRPPRLPRPRPRPLICPRP	-0.738
RRIRFRPPRLPRPRPRPIENPRP	-0.193
RRIRYRPPRLPRPRPRPDMHPRP	-0.231
RRIRYRPPRLPRPRPRPQLSPRP	-0.0974
RRIRFRPPRLPRPRPRPWENPRP	-0.0884

Sequence	shrunken log2 fold change
RRIRFRPPRLPRPRPRPKQKPRP	-0.00156
RRIRVRPPRLPRPRPRPNKTPRP	0.172
RRIRYRPPRLPRPRPRPPNPPRP	-0.145
RRIRDRPPRLPRPRPRPDRLPRP	0.0401
RRIRTRPPRLPRPRPRPMSTPRP	-0.0153
RRIRSRPPRLPRPRPRPLYVPRP	-0.467
RRIRWRPPRLPRPRPRPDKQPRP	0.0432
RRIRVRPPRLPRPRPRPMMIPRP	-0.131
RRIRQRPPRLPRPRPRPEWVPRP	3.27
RRIRQRPPRLPRPRPRPSCVPRP	-0.478
RRIRRRPPRLPRPRPRPEKFPRP	0.171
RRIRHRPPRLPRPRPRPMYTPRP	0.588
RRIRSRPPRLPRPRPRPHHSPRP	-0.464
RRIRERPPRLPRPRPRPNLQPRP	-0.208
RRIRVRPPRLPRPRPRPVSCPRP	0.182
RRIRTRPPRLPRPRPRPIFWPRP	0.85
RRIRHRPPRLPRPRPRPHPQPRP	-0.185
RRIRTRPPRLPRPRPRPMLTPRP	0.21
RRIRMRPPRLPRPRPRPSTMPRP	-0.283
RRIRARPPRLPRPRPRPEESPRP	-0.024
RRIRMRPPRLPRPRPRPWANPRP	-0.0525
RRIRERPPRLPRPRPRPSTGPRP	-0.467
RRIRTRPPRLPRPRPRPTFKPRP	-0.227
RRIRTRPPRLPRPRPRPKFLPRP	0.0687
RRIRHRPPRLPRPRPRPKSYPRP	-0.245

Sequence	shrunken log2 fold change
RRIRFRPPRLPRPRPRPSETPRP	-0.13
RRIRCRPPRLPRPRPRPNFGPRP	-0.0314
RRIRKRPPRLPRPRPRPKKCPRP	0.405
RRIRIRPPRLPRPRPRPVRTPRP	-0.0633
RRIRPRPPRLPRPRPRPFHVPRP	-0.428
RRIRPRPPRLPRPRPRPMDQPRP	-0.113
RRIRNRPPRLPRPRPRPIEGPRP	-0.0908
RRIRWRPPRLPRPRPRPSCNPRP	-0.0978
RRIRRRPPRLPRPRPRPYIAPRP	-0.54
RRIRHRPPRLPRPRPRPWPLPRP	-0.306
RRIRQRPPRLPRPRPRPAATPRP	0.732
RRIRSRPPRLPRPRPRPCFNPRP	-0.828
RRIRERPPRLPRPRPRPHCYPRP	-0.291
RRIRKRPPRLPRPRPRPWGEPRP	0.539
RRIRRRPPRLPRPRPRPDMNPRP	-0.00608
RRIRMRPPRLPRPRPRPINCPRP	-0.0244
RRIRDRPPRLPRPRPRPTWHPRP	0.376
RRIRMRPPRLPRPRPRPGMPPRP	0.522
RRIRDRPPRLPRPRPRPFLCPRP	0.0956
RRIRLRPPRLPRPRPRPWYSPRP	-0.103
RRIRTRPPRLPRPRPRPEIWPRP	0.264
RRIRKRPPRLPRPRPRPPEIPRP	0.131
RRIRTRPPRLPRPRPRPEYGPRP	-0.0673
RRIRTRPPRLPRPRPRPFCDPRP	-0.268
RRIRRRPPRLPRPRPRPTPEPRP	0.572

Sequence	shrunken log2 fold change
RRIRWRPPRLPRPRPRPAEGPRP	0.000853
RRIRWRPPRLPRPRPRPFDCPRP	-0.0389
RRIRCRPPRLPRPRPRPVKQPRP	-0.222
RRIRKRPPRLPRPRPRPDASPRP	0.187
RRIRNRPPRLPRPRPRPPKKPRP	-0.166
RRIRQRPPRLPRPRPRPEPHPRP	0.0864
RRIRERPPRLPRPRPRPVKCPRP	-0.069
RRIRIRPPRLPRPRPRPPHNPRP	-0.521
RRIRIRPPRLPRPRPRPNEFPRP	-0.295
RRIRPRPPRLPRPRPRPPVAPRP	0.366
RRIRLRPPRLPRPRPRPSFCPRP	-0.403
RRIRQRPPRLPRPRPRPNFKPRP	-0.235
RRIRWRPPRLPRPRPRPDLSPRP	0.000407
RRIRVRPPRLPRPRPRPWGRPRP	0.0354
RRIRTRPPRLPRPRPRPENQPRP	0.0593
RRIRIRPPRLPRPRPRPSAQPRP	-0.0807
RRIRCRPPRLPRPRPRPGGDPRP	0.142
RRIRERPPRLPRPRPRPTPTPRP	0.174
RRIRWRPPRLPRPRPRPTHEPRP	0.219
RRIRTRPPRLPRPRPRPFAAPRP	0.08
RRIRQRPPRLPRPRPRPIWVPRP	-0.344
RRIRKRPPRLPRPRPRPDGIPRP	0.00242
RRIRWRPPRLPRPRPRPQCEPRP	-0.0451
RRIRGRPPRLPRPRPRPFRHPRP	0.0102
RRIRWRPPRLPRPRPRPHPRPRP	0.451

Sequence	shrunken log2 fold change
RRIRVRPPRLPRPRPRPRHVPRP	0.0785
RRIRSRPPRLPRPRPRPDPNPRP	-0.000549
RRIRMRPPRLPRPRPRPLHMPRP	-0.0934
RRIRGRPPRLPRPRPRPNAYPRP	0.426
RRIRFRPPRLPRPRPRPMVGPRP	-0.225
RRIRNRPPRLPRPRPRPEQKPRP	-0.00208
RRIRLRPPRLPRPRPRPDTCPRP	-0.149
RRIRCRPPRLPRPRPRPDLYPRP	-0.0793
RRIRHRPPRLPRPRPRPKIQPRP	-0.484
RRIRVRPPRLPRPRPRPNWMPRP	-0.235
RRIRKRPPRLPRPRPRPSSPPRP	-0.563
RRIRVRPPRLPRPRPRPNQRPRP	0.0593
RRIRQRPPRLPRPRPRPFFSPRP	-0.313
RRIRRRPPRLPRPRPRPRNKPRP	0.0888
RRIRLRPPRLPRPRPRPPMFPRP	-0.242
RRIRPRPPRLPRPRPRPFSMPRP	-0.161
RRIRDRPPRLPRPRPRPAQCPRP	0.0665
RRIRPRPPRLPRPRPRPTWRPRP	0.639
RRIRIRPPRLPRPRPRPYWHPRP	-0.718
RRIRGRPPRLPRPRPRPQFLPRP	-0.0259
RRIRARPPRLPRPRPRPAETPRP	0.398
RRIRCRPPRLPRPRPRPCWAPRP	-0.0725
RRIRYRPPRLPRPRPRPNMHPRP	-0.934
RRIRSRPPRLPRPRPRPHSDPRP	-0.0834
RRIRERPPRLPRPRPRPRPKPRP	0.194
